Experimental data as given in patent US20120165267A1 (Genentech, published 2012).
Numbering of substitutions follows the chain as printed. Names and notes keep the numbering of the source.

What was measured:
DR5-IgG [1] = molecular target: T1, DR5-IgG (human, UniProt O14763 56-184); assay: BIAcore, immobilized receptor-IgG
T1 construct: also called Apo-2-IgG; not shown: IgG part; prepared as in WO98/51793, not described here

DcR2-IgG = molecular target: T2, DcR2-IgG (UniProt Q9UBN6 56-211); assay: AlphaQuest (CARB-AQ) displacement of biotinylated Apo2L/TRAIL from receptor-IgG; against Flag-Apo2L.WT
T2 sequence (Q9UBN6 whole entry, species assumed, looked up): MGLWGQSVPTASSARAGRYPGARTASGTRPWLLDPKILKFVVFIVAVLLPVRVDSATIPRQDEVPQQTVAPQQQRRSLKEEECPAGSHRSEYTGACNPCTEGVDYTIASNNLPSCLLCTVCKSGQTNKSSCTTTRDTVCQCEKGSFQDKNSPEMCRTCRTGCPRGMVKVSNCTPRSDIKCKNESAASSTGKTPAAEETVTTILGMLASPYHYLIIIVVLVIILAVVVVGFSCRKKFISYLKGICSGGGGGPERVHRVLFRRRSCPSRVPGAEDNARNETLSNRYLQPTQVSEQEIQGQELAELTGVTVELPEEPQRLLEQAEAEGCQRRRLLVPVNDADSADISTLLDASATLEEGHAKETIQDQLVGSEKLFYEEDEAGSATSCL

DR5-IgG [2] = molecular target: T1, DR5-IgG; assay: as above
DR5-IgG [3] = molecular target: T1, DR5-IgG; assay: BIAcore; against Flag.Apo2L.WT
Procedure: (§1) Briefly, dissociation constants (Kd) for binding of Apo-2L variants (see Tables II and III) to immobilized receptor immunoadhesins were determined from surface plasmon resonance (SPR) measurements on a Pharmacia BIAcore 3000. DR5-IgG (also referred to as Apo-2-IgG) and DcR2-IgG receptor immunoadhesins were prepared as described in WO98/51793 published Nov. 19, 1998 and WO99/10484 published Mar. 9, 1999, respectively. DR4-IgG was prepared as follows. […] Sensorgrams were recorded for Apo-2L binding at concentrations ranging from 15.6 nM to 500 nM in 2-fold increments. The kinetics constants were determined by non-linear regression analysis and used to calculate the binding constants.

DR5-IgG [4] = molecular target: T1, DR5-IgG; assay: BIAcore, immobilized receptor-IgG; against wild-type Apo2L/TRAIL(114-281)
Procedure: as §1
KD values determined by BIAcore analysis are reported relative to the value calculated for the wild-type protein. Apoptosis-induction is evaluated from the ED₅₀ value (ng/mL) in the presence and absence of 2 μg/mL M2 antibody (Sigma).

DcR1 receptor-IgG = molecular target: T3, DcR1 receptor-IgG (UniProt O14798 26-236); assay: AlphaQuest (CARB-AQ) displacement of biotinylated Apo2L/TRAIL from receptor-IgG; against Flag-Apo2L.WT
T3 construct: Captured as receptor-IgG on Protein A beads; construct not described
T3 sequence (O14798 whole entry, species assumed, looked up): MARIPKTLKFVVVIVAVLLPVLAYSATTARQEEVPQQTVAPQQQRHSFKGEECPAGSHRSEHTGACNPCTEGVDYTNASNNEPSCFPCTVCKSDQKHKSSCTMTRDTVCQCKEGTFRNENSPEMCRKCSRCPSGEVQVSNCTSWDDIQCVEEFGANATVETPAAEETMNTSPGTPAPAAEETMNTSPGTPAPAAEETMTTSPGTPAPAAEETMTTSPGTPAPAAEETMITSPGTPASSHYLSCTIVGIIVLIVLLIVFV

BSA = molecular target: T4, BSA (UniProt P02769 25-607); assay: spot ELISA, phage on coated protein
T4 construct: Control protein of the spot ELISA

DR5-IgG [5] = molecular target: T1, DR5-IgG; assay: competition phage ELISA: phage clone on wells coated with DR4-IgG, competed by rising soluble DR5-IgG, bound phage detected with anti-M13 antibody-HRP, A450
Procedure: Relative binding strengths for 4 of the clones from the DR4 library were determined by competition phage ELISA (FIGS. 15 and 16). In this assay, a fixed concentration of phage is added to wells coated with receptor-IgG in the presence of an increasing concentration of receptor-IgG in solution. After incubation to allow binding and washing to remove unbound phage, the bound phage is determined with the HRP-coupled, anti-M13 antibody (Pharmacia). Analysis of the ELISA signal as a function of receptor-IgG concentration in solution by using a 4-parameter fit yields the IC50 value. Since the IC50 value will vary with phage concentration, the phage clones were first titered to determine the dilution giving equal signal strength for the 4 clones.

DR5-IgG [6] = molecular target: T1, DR5-IgG; assay: spot ELISA, phage on coated protein

B1: Apo2L.DR5-8 (ligand)
chain: VRERGPQRVAAHITGTRGRSNTLSSPNSKNEKALGRKINSWESSRSGHSFLSNLHLRNGELVIHEKGFYYIYSQTQFKFREEIKENTKNDKQMVQYIYKYTSYPDPILLMKSARNSCWSKDAEYGLYSIYQGGIFELKENDRIFVSVTNERLLQMDHEASFFGAFLVG
notes: also called Apo2L/TRAIL.DR5-8
DR5-binding (ratio relative to wild-type Apo2L) (DR5-IgG [1]): 0.6 ratio

B2: Apo2L.DR5-8C (ligand)
chain: B1 chain with R151H, Q154D
notes: Subcloned into pAPOK5.0 (114-281 form)
DR5-binding (ratio relative to wild-type Apo2L) (DR5-IgG [1]): 0.6 ratio

B3: Flag.Apo2L.DR5-23 (ligand)
chain: B1 chain with Q76A, R151S, Q154D, D156E
notes: not shown: N-terminal flag tag from pFLAG-MAC
IC50 ratio (mutant/wt) (DcR2-IgG): 24 ratio | IC50 ratio (mutant/wt) (DR5-IgG [2]): 2.3 ratio | DR5 KD (mut/wt) (DR5-IgG [3]): 2.4 ratio

B4: Flag.Apo2L.DR5-21 (ligand)
chain: B1 chain with Q76A, R80K, R151D, Q154N, D156E
notes: as for B3
IC50 ratio (mutant/wt) (DcR2-IgG): 9.4 ratio | IC50 ratio (mutant/wt) (DR5-IgG [2]): 1.9 ratio | DR5 KD (mut/wt) (DR5-IgG [3]): 1 ratio

B5: Apo2L/TRAIL(114-281) mutant DR5-5 (ligand)
chain: B1 chain with Q76S, K78R, R80T, R151G, Q154D, D156N
notes: Untagged, from pAPOK5.0
KD ratio (mutant/wt) (DR5-IgG [4]): 2.5 ratio

B6: Flag.Apo2L.DR4-8 (ligand)
chain: B1 chain with Q76A, K78R, R80S, N86V, K88R, Y100W, S102D, R151H, L153I, Q154D
notes: as for B3
IC50 ratio (mutant/wt) (DcR2-IgG): 15 ratio | IC50 ratio (mutant/wt) (DcR1 receptor-IgG): 5.5 ratio | DR5 KD (mut/wt) (DR5-IgG [3]): 1100 ratio

B7: Apo2L.DR5-8B (ligand)
chain: B1 chain with R151H, L153I, Q154D
notes: as for B2
DR5-binding (ratio relative to wild-type Apo2L) (DR5-IgG [1]): 0.6 ratio

B8: Apo2L/TRAIL(114-281) mutant DR5-11 (ligand)
chain: B1 chain with Q76A, K78R, R80K, R151G, L153V, Q154D, D156S
notes: Untagged, from pAPOK5.0
KD ratio (mutant/wt) (DR5-IgG [4]): 2.2 ratio

B9: Apo2L/TRAIL(114-281) mutant DR5-23 (ligand)
chain: B1 chain with Q76A, R151S, Q154D, D156E
notes: Untagged, from pAPOK5.0
KD ratio (mutant/wt) (DR5-IgG [4]): 2.4 ratio

B10: Apo2L/TRAIL(114-281) mutant DR5-4 (ligand)
chain: B1 chain with Q76A, K78R, R151Q, Q154D, D156N
notes: Untagged, from pAPOK5.0
KD ratio (mutant/wt) (DR5-IgG [4]): 1.3 ratio

B11: Flag.Apo2L.DR5-1 (ligand)
chain: B1 chain with Q76A, R80K, R151A, L153I, Q154D
notes: as for B3
IC50 ratio (mutant/wt) (DcR2-IgG): 32 ratio | IC50 ratio (mutant/wt) (DR5-IgG [2]): 2.4 ratio | DR5 KD (mut/wt) (DR5-IgG [3]): 2.2 ratio

B12: Flag.Apo2L.DR4-9 (ligand)
chain: B1 chain with Q76A, K78R, R80S, N86R, K88R, Y100W, S102D, R151H, L153I, Q154D
notes: as for B3
IC50 ratio (mutant/wt) (DcR2-IgG): 18 ratio | IC50 ratio (mutant/wt) (DcR1 receptor-IgG): 4 ratio | DR5 KD (mut/wt) (DR5-IgG [3]): 1200 ratio

B13: Flag.Apo2L.DR5-8 (ligand)
chain: B1 chain
notes: also called Flag-Apo21.DR5-8; not shown: N-terminal flag tag from pFLAG-MAC
IC50 ratio (mutant/wt) (DR5-IgG [2]): 0.7 ratio | DR5 KD (mut/wt) (DR5-IgG [3]): 0.8 ratio

B14: Apo2L/TRAIL(114-281) mutant DR5-21 (ligand)
chain: B1 chain with Q76A, R80K, R151D, Q154N, D156E
notes: Untagged, from pAPOK5.0; h-0007 lists D267Q
KD ratio (mutant/wt) (DR5-IgG [4]): 1.2 ratio

B15: Flag.Apo2L.DR5-2 (ligand)
chain: B1 chain with Q76A, R80K, R151H, L153I, Q154D
notes: as for B3
IC50 ratio (mutant/wt) (DcR2-IgG): 5 ratio | IC50 ratio (mutant/wt) (DR5-IgG [2]): 2.8 ratio | DR5 KD (mut/wt) (DR5-IgG [3]): 1.9 ratio

B16: DR4-selective phage clone 11 (ligand)
chain: SEETISTVQEKQQNISPLVRERGPQRVAAHITGTRGRSNTLSSPNSKNEKALGRKINSWESSRSGHSFLSNLHLRNGELVIHEKGFYYIYSQTAFRFSEEIKEGTSNDKQMVQYIYKWTDYPDPILLMKSARNSCWSKDAEYGLYSIYQGGIFELKENDRIFVSVTNEHLIDMDHEASFFGAFLVG
notes: also called DR4-11
binding result (BSA): no binding | binding result (DR5-IgG [5]): no binding (tested: 1000 nM)

B17: DR4-selective phage clone 8 (ligand)
chain: B16 chain with G104V, S106R
notes: also called DR4-8
binding result (BSA): no binding | binding result (DR5-IgG [6]): no binding

B18: DR4-selective phage clone 9 (ligand)
chain: B16 chain with G104R, S106R
notes: also called DR4-9
binding result (BSA): no binding | binding result (DR5-IgG [6]): no binding

B19: DR4-selective phage clone 13 (ligand)
chain: B16 chain with S98K, S106G
notes: also called DR4-13
binding result (BSA): no binding | binding result (DR5-IgG [5]): no binding (tested: 1000 nM)
